Measured values as given in article PMC5798300.

Molecular target: (2S)-methylsuccinyl-CoA dehydrogenase from Paracoccus denitrificans, wild type, as used for analytical size-exclusion chromatography (Paracoccus denitrificans)
Test: SEC; analytical; Superdex 200 Increase 10/300 GL, 100 µl at 2 mg/ml, 0.7 ml/min, 20 mM Tris-HCl pH 7.9, 200 mM NaCl; enzymes incubated with 500 µM FAD for 1 h on ice beforehand; calibrated with a gel filtration standard

In the case of “(2S)-methylsuccinyl-CoA dehydrogenase from Paracoccus denitrificans, wild type, as used for analytical size-exclusion chromatography (enzyme)”, the stoichiometry N is reported as 2.
